According to paper PMC8354476, “Acyl-CoA oxidase ACOX-1 interacts with a peroxin PEX-5 to play roles in larval development of Haemonchus contortus” (PLoS Pathogens, 2021):

B1: rHc-ACOX-1.1 (Haemonchus contortus) (protein)
chain: MPLNKLLRDGDNEDLAEERRKATFDTDEMAAIIWEGKERVRRRREITKKVNEYTELHDPYCQAFMTRHEEVENAARKITKMFSLIDKLGVNPTNAADMAHLTSEVIGLYGHPLALHAVMFIPSLQAQCADDQMHWLKKAMSRQIIGTYAQTELGHGTNLRKLETTATHDANTQEFVLHSPTRTAMKWWPGNLGKSANHAVVVACLIIDGKNYGPHNFIVPLRDPETHMPLKGITVGDIGPKMATGPVDNGFLSFDHYRIPRTNMLMKHAKVTPEGKYIPPAHAKVGYSAMVHVRSHMISDQAKFLAQALTTAIRYSAIRRQGEIQPGDGEVKILEYQTQQYRLLPQLARAYAFSFTGRAVRDLYLRVQKDVAKGKVDEMAELHYITSGLKAVVTHLTGEGISQARMSCGGHGYSKASNMPDLYGIAVADCTYEGENMVMLQQLARYLMRAAGEAEKGRALGRLVNYLVEPSDIHSSIDRQLDYDYKAHLKAFDKAAKLQVMKAYERMRALKAQGLSEEDAWNANAVELNRAARVHTRQYIAHQFYEQVSSVTDGRCREVPRDLLHLHLNYEILDMAYYLLEDGFLSGQQMDYMKEDMYRLLAKLRPNAVSLVDSWDISDHELRSVLGRRDGHVYENLYKWAQESELNRTQVLPTFEKYLKPMMMEAHAQSKL
notes: full-length transcript 2019 nt; N-terminal FLAG tag, pcDNA3.1, expressed in HEK293T cells, purified on anti-FLAG magnetic beads; locus chromosome IV: 9780094-9786809; Thr151, Gly190, Glu433 predicted sites; C-terminal PTS1 (SKL)
B2: rHc-ACOX-1.2 (Haemonchus contortus) (protein)
chain: MPFRGITVGDIGPKMAYNGVDNGFLAFHHYRIPRNNMLMKHVKVTPDGKYVPPAHAKVGYSAMVHVRAHMISTQAAFLAQALTTAIRYSAIRRQGEIQPGQGEVKILEYQTQQHRLFPQLARAYAFIFTGQAVRVIFQRVQKDVARGKVDEMAKLHYISSGLKAVVTYLTGQGIEQARMSCGGHGYSKASNMSELYGVAIGGATYEGENMVMLQQLARYLMKSAEAAKSGRAVGKLVDYLVRSSEQRSAIDRQPDHDYSAHLKAFDKAAKLQVMKAYERMQSLRAQGLLEEEAWNANAVELNRAARVHTRQYIARTFDEHVKAVVHGPCREVLLDLLHLHLNYELLDMAYYLLEDGYLSGQQLDYMKEDMYRLLARLRPNIVSLVDSWDFSDHELRSVLGRRDGHVYENLYKWAQESELNRTQVLPTFEKYLKPMMKQAREQSKL
notes: N-terminal FLAG tag, pcDNA3.1, expressed in HEK293T cells, purified on anti-FLAG magnetic beads; locus chromosome IV: 9789018-9796292; Glu206 active site; C-terminal PTS1 (SKL)
B3: rHc-ACOX-1.3 (Haemonchus contortus) (protein)
chain: MPFRGITVGDIGPKMAYNGVDNGFLAFDHYRIPRNNMLMKHVKVTPEGKYVPPAHAKVGYSAMVHVRAHMISTQAAFLAQALTTAIRYSAIRRQGEIQPGRGEVKILEYQTQQHRLFPQLARAYAFIFTGQAVRVIFQRVQKDVARGKVDEMAELHYISSGLKAVVTYLTGQGIEQARMSCGGHGYSKASNMSELYGVAIGGATYEGENMVMLQQLARYLMKSAEAAKNGRAVGKLVDYLVRSSEQRSAIDRKPDHDYTAHLKAFDKAAKLQVMKAYERMQSLRARGLTEEEAWNANAVELNRAARVHTRQYIARTFDEHVKAVVHGPCREVLLDLLYLHLNYELLDMAYYLLEDGYLSGQQMDYMKEDMYRLLARLRPNIVSLVDSWDFSDHELRSVLGRRDGHVYENLYKWAQESELNRTQVLPTFEKYLKPMMKQAREQSKL
notes: N-terminal FLAG tag, pcDNA3.1, expressed in HEK293T cells, purified on anti-FLAG magnetic beads; Glu206 active site; C-terminal PTS1 (SKL)

Substrate: CCCCCCCCCCCCCCCC(=O)SCCNC(=O)CCNC(=O)[C@H](O)C(C)(C)COP(=O)(O)OP(=O)(O)OC[C@H]1O[C@@H](n2cnc3c(N)ncnc32)[C@H](O)[C@@H]1OP(=O)(O)O
Test: purified protein
Format: biochemical, Haemonchus contortus
Settings: 10 μM FAD, 50 mM potassium phosphate
[1] = pH 7.5, 42°C (optimum conditions)

| Protein | Km (pH 7.5, 37°C (optimum conditions)) [µM] | Km [1] [µM] |
| --- | --- | --- |
| B1 | 78.79 |  |
| B2 |  | 6.83 |
| B3 |  | 12.64 |
